In article PMC11403483 (The Journal of Biological Chemistry, 2024) one finds Kd, koff and kon data, which are given here for one molecule.

As usually defined, the Kd is the concentration at which binding is half-saturated. For orientation: koff means the first-order rate constant of dissociation. In general, kon refers to the second-order rate constant of association. Read a high kon as faster complex formation.

Assay [1] concerns the target recombinant PSG1 (pregnancy-specific glycoprotein 1) (human, UniProt P11464 35-419, complex N-linked glycans). Nature of the assay: SPR.
The target in assay [2] is native PSG1 (human (endogenous in serum of pregnant …, UniProt P11464 35-419)). Nature of the assay: SPR.
Chain of native PSG1 (human (P11464 35-419): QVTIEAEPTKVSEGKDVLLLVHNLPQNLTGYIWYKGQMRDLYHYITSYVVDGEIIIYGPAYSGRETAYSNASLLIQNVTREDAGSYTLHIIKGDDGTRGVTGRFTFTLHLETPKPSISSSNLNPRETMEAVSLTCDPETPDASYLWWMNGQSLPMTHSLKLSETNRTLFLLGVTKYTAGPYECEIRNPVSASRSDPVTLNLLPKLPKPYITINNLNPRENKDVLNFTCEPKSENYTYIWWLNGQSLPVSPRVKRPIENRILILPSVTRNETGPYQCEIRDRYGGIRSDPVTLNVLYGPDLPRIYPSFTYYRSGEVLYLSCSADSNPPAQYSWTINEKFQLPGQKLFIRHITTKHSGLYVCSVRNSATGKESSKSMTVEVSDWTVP

Chain of recombinant PSG1 (pregnancy-specific glycoprotein 1) (P11464 35-419): as above

B1: recombinant human galectin 9 (natural protein, UniProt O00182-2 1-323, looked up)
chain: MAFSGSQAPYLSPAVPFSGTIQGGLQDGLQITVNGTVLSSSGTRFAVNFQTGFSGNDIAFHFNPRFEDGGYVVCNTRQNGSWGPEERKTHMPFQKGMPFDLCFLVQSSDFKVMVNGILFVQYFHRVPFHRVDTISVNGSVQLSYISFQPPGVWPANPAPITQTVIHTVQSAPGQMFSTPAIPPMMYPHPAYPMPFITTILGGLYPSKSILLSGTVLPSAQRFHINLCSGNHIAFHLNPRFDENAVVRNTQIDNSWGSEERSLPRKMPFVRGQSFSVWILCEAHCLKVAVDGQHLFEYYHRLRNLPTINRLEVGGDIQLTHVQT
With B1, in assay [1], the Kd was 21.6 nM and the off-rate (koff) was found to be 0.00156 s⁻¹. In assay [2], this molecule had a Kd of 40.3 nM, an off-rate constant (koff) of 0.0016 s⁻¹ and an on-rate (kon) of 39000 M⁻¹ s⁻¹.
